According to article doi:10.1101/2023.08.25.554789:

Assays:
apCC-Hex-LLIA [1] = assay: crystal structure
apCC-Hex-LLIA [2] = assay: AUC

Substance: apCC-Hex-LLIA (peptide)
- stoichiometry N (apCC-Hex-LLIA [1]): 6
- stoichiometry N (apCC-Hex-LLIA [2]): 6
